The target of this data set is NS2 (recombinant) (Hepatitis C virus JFH1 (genotype 2a), UniProt Q99IB8 814-1030). Description: ELONA; binding retained with excess yeast tRNA; ELONA: biotin-aptamer on streptavidin plates, protein 30 min at 37 C; washes PBS, 1 mM MgCl2, 0.1% BSA, 0.05% Tween-20; pH not stated. The following applies: tags: N-terminal His (pET-28b), label: biotin.
Sequence of NS2 (recombinant) (Q99IB8 814-1030): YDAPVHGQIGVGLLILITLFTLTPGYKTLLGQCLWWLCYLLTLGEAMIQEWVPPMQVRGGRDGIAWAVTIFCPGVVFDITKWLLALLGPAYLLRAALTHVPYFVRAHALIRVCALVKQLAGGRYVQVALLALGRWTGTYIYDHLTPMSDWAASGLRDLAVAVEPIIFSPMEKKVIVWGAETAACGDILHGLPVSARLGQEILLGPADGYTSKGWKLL
As for CAGGTACCACCTTCATGGGCGCGGAAGACGATGGTGTACTA (ssDNA) [aptamer NS2-2], the binding result is reported as “binds”.

Consider CTGGATCGAAAAGTATCCACGTTTGTCTGAAAATAGTGGCC (ssDNA) [aptamer NS2-1], for which the binding result is listed as “binds”.

ACGGGGCAGGATTGTCCCCGCGCCTGGTTGAAGGTAGTCGC (ssDNA) [aptamer NS2-3]: the binding result was “binds”.

The values above are taken from PMC3938669, “Inhibition of Hepatitis C Virus Infection by DNA Aptamer against NS2 Protein”.
